Experiment: yeast display, Sf9 membrane polyspecificity reagent, FACS + sequencing; frameworks hold sequencing errors
Outline: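 Galactose induction of a Saccharomyces cerevisiae BJ5465 synthetic nanobody display library ran 36–48 hours. The cells were then stained for 1 hour at 4 °C with 10% biotinylated, detergent-solubilized Sf9 membrane reagent, pulled down on streptavidin microbeads and FACS-sorted into low and high (top ~1%) gates on expression and reagent-binding fluorescence. Labels for polyreactivity follow the gate of origin.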

Sequence | polyreactivity (PSR sort gate)
QVQLVESGGGLVQAGGSLRLSCAASGYIFGVNALGWYRQAPGKERELVAAIDSGSRTYYADSVKGRFTISRDNAKNTVYLQMNSLKPEDTAVYYFATTFYVSYGGGYYTIWYDYWGQGTQVTVSS | low polyreactivity
QVQLVESGGGLVQAGGSLRLSCAASGYIFGWNAMGWYRQAPGKERELVAAISSSGGNTYYADSVKGRFTISRDNAKNTVYLQMNSLKPEDTAVYYCARSYPYRYDYWGQGTQVTVSS | low polyreactivity
QVQLVESGGGLVQAGGSLRLSCAASGYIFGWYTMGWYRQAPGKERELVAAISGGGRTYYADSVKGRFTISRDNAKNTVYLQMNSLKPEDTAVYYCNDYSSYIKYDYWGQGTQVTVSS | high polyreactivity
QVQLVESGGGLVQAGGSLRLSCAASGYIFGYYAMGWYRQAPGQEREFVAAINWSGGSTYYADSVNGRFTISRDNAKNTVYLQMNSLKPEDTAVYYCARSYRSRVVYKFGYWGQGTQVTVSS | high polyreactivity
QVQLVESGGGLVQAGGSLRLSCAASGYIFGYYVMGWYRQAPGKERELVAAISGRGGRTYYADSVKGRFTISRDNAMNTVYLQMNSLKPEDTAVYYCAAADLPGTMYYWGQGTQVTVSS | high polyreactivity
QVQLVESGGGLVQAGGSLRLSCAASGYIFGYYVMGWYRQAPGKERELVAAITGRGGSTYYADSVKGRFTISRDNAKNTVSLQMNSLKPEDTAVYYCAADATTYPYDPWHLYEIWEYYYWGQGTQVTVSS | low polyreactivity
QVQLVESGGGLVQAGGSLRLSCAASGYIFHDNAMGWYRQAPGKERELVAGITTGGSTYYADSVKGRFTISRDNAKYTVYLQMNSLKPEDTAVYYCAAKVWSRSFYKYYYWGQGTQVTVSS | high polyreactivity
QVQLVESGGGLVQAGGSLRLSCAASGYIFHRYAMGWYRQAPGKERELVAAISWRVTSTFYADSVKGRFTISRDNAKNTVYLQMNCLKPEDTAVYYCASVKWVGYKYWSSRKYDYWGQGTQVTVSW | high polyreactivity
QVQLVESGGGLVQAGGSLRLSCAASGYIFHSYVMGWYRQAPGKERELVAAITSDDDSTFYADSVKGRFTISRDNAKNTVYLQMNSLKPEETGVYYCAADGYYQYDKDTYYSTSDYWGQGTQVTVSS | low polyreactivity
QVQLVESGGGLVQAGGSLRLSCAASGYIFIRNAMGWYRPAPGKDRELVAAISWTGGNTYYADSVKGRFTISRDNAKNTVYLQMNSLKPEDTAVYYCAALRSVFKSFRTTYVRYDYWGQATQVTVSS | high polyreactivity
QVQLVESGGGLVQAGGSLRLSCAASGYIFIWYDMGWYRQAPGKERELVAAISGSGGSTYYADSVKGRFTISRDNAKNTVYLQMNSLKPEDTAVYYCAAYVPRGNSEVIAMDYWGQGTQVTVSS | low polyreactivity
QVQLVESGGGLVQAGGSLRLSCAASGYIFKIKAMGWYRQAPGKERELVATITWSTGTTYYADSVKGRFTISRDNAKNTVYLQMNSLKPEDTAVYYCNATAIIRIGVLPGDYWGQGTQVTVSS | low polyreactivity
QVQLVESGGGLVQAGGSLRLSCAASGYIFKRYAIGWNRQAPGKERELVAAISGNGGSTYYADSVKGRFTISRDNAKNTVYFQMNSLKPEDTAVYYCNKSGYYSPTSKGEYWGQGTQVTVSS | low polyreactivity
QVQLVESGGGLVQAGGSLRLSCAASGYIFKRYAMGWYRQAPGKERELVAAISSRGGSTYYADSVKGRFTISRDNAKNTVYLQMNSLKPEDTAVYYCAAVSWFRNYYWGQGTQVTVSS | high polyreactivity
QVQLVESGGGLVQAGGSLRLSCAASGYIFKYNTMGWYRQAPGKERELVAAISTGGNTYYADSVKGRFTISRDNAKNTVYLQMNSLKPEDTAVYYCAALSGAHEHFVEYDYWGQGTQVTVSS | low polyreactivity
QVQLVESGGGLVQAGGSLRLSCAASGYIFLAYAMGWYRQAPGKERELVADNTYADSVKGRFTISRDNAKNTVYLQMNSLKPEDTAVYYCNADEVYDEYSYDYWGQGTQVTVSS | low polyreactivity

Sequence | polyreactivity (PSR sort gate)
QVQLVESGGGLVQAGGSLRLSCAASGYIFLRNALGWYRQAPGKERELVAAIRRTGGSTYYADSVKGRFTISRDNAKNTVYLQMNSLKPEDTAVYYCAKRSYTGYEYWGQGTQVTVSS | low polyreactivity
QVQLVESGGGLVQAGGSLRLSCAASGYIFPEYVMGWYRQAPGKERELVAVITWDGTSTYADSVKGRFTISRDNAKNTVYLQMNSLKPEDTAVYYCAADTNYYVDTAGYGDGLDSWGQGTQVTVSS | low polyreactivity
QVQLVESGGGLVQAGGSLRLSCAASGYIFPGNAMGWYRQAPGKERELVAAISSRGGRTYYADSVKGRFTISRDNAKNTVYLQMNSLKPEDTAVYYCAKGGKVGSTLEYDYWGQGTQVTVSS | high polyreactivity
QVQLVESGGGLVQAGGSLRLSCAASGYIFPTNAMGWYRQAPGKERELVAVITSGGSTYYADSVKGRFTISRDNAKNTVYLQMNSLKPEDNAVYYCAARYPGRYGIYRVLYGYWGQGTQVTVSS | high polyreactivity
QVQLVESGGGLVQAGGSLRLSCAASGYIFPYYAMGWYRQAPGKERELVAAISRSGGGTYYADSVKGRFTISRDNAKNTVYLQMNSLKPEDTAVYYCNRRSGHVHEYDYWGQGTQVTVSS | low polyreactivity
QVQLVESGGGLVQAGGSLRLSCAASGYIFQDYAMGWYRQAPAKERELVARISAGGGRTYYADSVKGRFTISRDNAKNTVYLQMISLKPEDTAVYYCAAPLSYYWVYIVRYGYDYWGQGTQVTVSS | low polyreactivity
QVQLVESGGGLVQAGGSLRLSCAASGYIFRFNAMGWYRQAPGKERELVAVNTSGARTYYADSVKGRFTISRDNAKNTVYLQMNSLKPEDTAVYYCNAGARRYLYDYWGQGTQVTVSS | low polyreactivity
QVQLVESGGGLVQAGGSLRLSCAASGYIFRGYVMGWYRQAPGKERELVAAITSSGGSTYYADSVKGRFTISRDNAKNTVYLQMISLKPEDTAVYYCAARGYSPHYYWGQGTQVTVSS | high polyreactivity
QVQLVESGGGLVQAGGSLRLSCAASGYIFRVYAMGWYRQAPGKERELVAAISSGGSTYYADSVKGRFTISRDNAKNTVYLQMNSLKPEDTAVYYCAKAGLALYAFRDDYWGQGTQVTVSS | low polyreactivity
QVQLVESGGGLVQAGGSLRLSCAASGYIFSGYAMGWYRQAPGKERELVAAISSNGGSTYYADSVKGRFTISRDNAKNTVYLQMNSLKPEDTAVYYCNRGLAARVGRGDYWGQGTQVTVSS | low polyreactivity
QVQLVESGGGLVQAGGSLRLSCAASGYIFSHYAMAWYRQAPGKERELVAAISRNGGSTYYADSVKGRFTISRDNAKNTVYLQMNSLKPEDTSVYYCAVGWKYRYGYWGQGTQVTVSS | high polyreactivity
QVQLVESGGGLVQAGGSLRLSCAASGYIFSVNAMGWYRQAPGKERELVAAIRGSGGSTFYADSVKGRFTISRDNAKNTVYLQMNSLKPEDTAVYYCAAYWRGRYDYWGQGTQVTVSS | low polyreactivity
QVQLVESGGGLVQAGGSLRLSCAASGYIFSYNAMGWYRQAPGKERELVAAISRTGGSTNYADSVKGRFTISRDNAKNTVYLQMNSLKPEDTAVYYCAKRYRYPSWGEYGYWGQGTQVTVSS | high polyreactivity
QVQLVESGGGLVQAGGSLRLSCAASGYIFTPYAMGWYRQAPGKERELVAAITGSGSSTYYADSVKGRFTISRDNAKNTVYLQMNSLKPEDTAGYYCAADSYGFYGYYYYELEYWGQGTQVTVSS | low polyreactivity
QVQLVESGGGLVQAGGSLRLSCAASGYIFTYNALGWSRQAPGKDRELVAAISSGHGRTYYADSVKGRFTISRDHAQNTVDLEMNSLKPEDTAVYYCNASRVVYRQAYLYGYDYWGQGTQVTVSS | low polyreactivity
QVQLVESGGGLVQAGGSLRLSCAASGYIFVFNTMGWYRQAPGKERELVASISWDAGSTYYADSVKGRFTISRDNAKNTVYLQMNSLKPEDTAVDYCNAGRIRSGSPDYWGQGTQVTVSS | low polyreactivity
